The results in this text go back to paper PMC8816947.

Experiment [1] deals with BG505.MD39 native-like trimer (stabilized HIV Env gp140 ectodomain), sequence optimized, recombinant (HIV-1 (isolate BG505)). The experiment can be described thus: SEC. On the technique in general: SEC sorts molecules by how far they enter the pores of the column.
For experiment [2] the target is unchanged. The experiment in a line: SEC-MALS.
The target is the same in experiment [3]. The experiment in a line: negative-stain EM.
Experiment [4] has the same target. The experiment can be described thus: native gel or EMSA.
Experiment [5] has as its target in vivo produced BG505.MD39 (DNA-encoded, pMD39_opt, in mouse muscle) (HIV-1 (isolate BG505)). The experiment can be described thus: native gel or EMSA.

As usually defined, the stoichiometry N is a count of units in the complex or per binding partner.

“BG505.MD39 native-like trimer (stabilized HIV Env gp140 ectodomain), sequence optimized, recombinant (complex)”: the stoichiometry N in experiment [1], in experiment [2], in experiment [3] and in experiment [4] was 3 in each case.
Turning to “in vivo produced BG505.MD39 (DNA-encoded, pMD39_opt, in mouse muscle) (complex)”, in experiment [5], the stoichiometry N was 3.
